The source of these data is patent publication US20230021388A1 (VELOSBIO, published 2023).

Usually Kd stands for the concentration at which binding is half-saturated.

Where a chain is given by its changes, count along the chain named. Names and notes keep the numbering of the source.

The labels stand for the following.
B1: Ab1 Fab variant H1 T32A + H2 F58I (Fab, V domains shown)
VH: QVQLQESGPGLVKPSQTLSLTCTVSGYAFAAYNIHWVRQAPGQGLEWMGSIDPYDGGSSYNQKFKDRLTISKDTSKNQVVLTMTNMDPVDTATYYCARGWYYFDYWGHGTLVTVSS
VL: DIVMTQTPLSLPVTPGEPASISCRASKSISKYLAWYQQKPGQAPRLLIYSGSTLQSGIPPRFSGSGYGTDFTLTINNIESEDAAYYFCQQHDESPYTFGEGTKVEIK
notes: Fab
B2: Ab1 Fab variant H1 T32A + H2 F58I, G66E, N71H (Fab, V domains shown)
VH: B1 VH with G56E, N61H
VL: B1 VL
notes: Fab
B3: Ab1 Fab variant H1 T32A + H2 F58I, G66E (Fab, V domains shown)
VH: B1 VH with G56E
VL: B1 VL
notes: Fab
B4: Ab1 Fab variant H1 T32A + H2 F58V, G66E (Fab, V domains shown)
VH: B1 VH with I51V, G56E
VL: B1 VL
notes: Fab
B5: Ab1 Fab variant H1 T32A + H2 F58I, S69V (Fab, V domains shown)
VH: B1 VH with S59V
VL: B1 VL
notes: Fab
B6: Ab1 Fab variant H1 T32A + H2 F58V, G66E, S69V (Fab, V domains shown)
VH: B1 VH with I51V, G56E, S59V
VL: B1 VL
notes: Fab
B7: Ab1 Fab variant H1 T32A + H2 F58V (Fab, V domains shown)
VH: B1 VH with I51V
VL: B1 VL
notes: Fab
B8: Ab1 Fab variant H1 T32A + H2 F58I, N71H (Fab, V domains shown)
VH: B1 VH with N61H
VL: B1 VL
notes: Fab
B9: Ab1 Fab variant L3 T138S (Fab, V domains shown)
VH: B1 VH with A30T, I51F
VL: B1 VL with T97S
notes: Fab
B10: Ab1 Fab variant L3 E111L (Fab, V domains shown)
VH: B1 VH with A30T, I51F
VL: B1 VL with E93L
notes: Fab
B11: Ab1 Fab variant H3 R108G (Fab, V domains shown)
VH: B1 VH with A30T, I51F, R98G
VL: B1 VL
notes: Fab
B12: Ab1 Fab variant H3 Y138T (Fab, V domains shown)
VH: B1 VH with A30T, I51F, Y105T
VL: B1 VL
notes: Fab
B13: Ab1 Fab variant H3 Y138V (Fab, V domains shown)
VH: B1 VH with A30T, I51F, Y105V
VL: B1 VL
notes: Fab
B14: Ab1 Fab variant L3 Q107S (Fab, V domains shown)
VH: B1 VH with A30T, I51F
VL: B1 VL with Q89S
notes: Fab
B15: Ab1 Fab variant L3 Q108R (Fab, V domains shown)
VH: B1 VH with A30T, I51F
VL: B1 VL with Q90R
notes: Fab
B16: Ab1 Fab variant L3 D110N (Fab, V domains shown)
VH: B1 VH with A30T, I51F
VL: B1 VL with D92N
notes: Fab
B17: Ab1 Fab variant L3 H109N (Fab, V domains shown)
VH: B1 VH with A30T, I51F
VL: B1 VL with H91N
notes: Fab
B18: Ab1 Fab variant L3 E111I (Fab, V domains shown)
VH: B1 VH with A30T, I51F
VL: B1 VL with E93I
notes: Fab
B19: Ab1 Fab variant H3 Y111L (Fab, V domains shown)
VH: B1 VH with A30T, I51F, Y101L
VL: B1 VL
notes: Fab
B20: Ab1 Fab variant L3 Y137V (Fab, V domains shown)
VH: B1 VH with A30T, I51F
VL: B1 VL with Y96V
notes: Fab
B21: Ab1 Fab variant H3 Y111A (Fab, V domains shown)
VH: B1 VH with A30T, I51F, Y101A
VL: B1 VL
notes: Fab
B22: Ab1 Fab variant L3 D110H (Fab, V domains shown)
VH: B1 VH with A30T, I51F
VL: B1 VL with D92H
notes: Fab
B23: Ab1 Fab variant L3 S135P (Fab, V domains shown)
VH: B1 VH with A30T, I51F
VL: B1 VL with S94P
notes: Fab
B24: Ab1 Fab variant L3 Q108A (Fab, V domains shown)
VH: B1 VH with A30T, I51F
VL: B1 VL with Q90A
notes: Fab
B25: Ab1 Fab variant L3 Y137T (Fab, V domains shown)
VH: B1 VH with A30T, I51F
VL: B1 VL with Y96T
notes: Fab
B26: Ab1 Fab variant H3 Y138Q (Fab, V domains shown)
VH: B1 VH with A30T, I51F, Y105Q
VL: B1 VL
notes: Fab
B27: Ab1 Fab variant L3 H109Q (Fab, V domains shown)
VH: B1 VH with A30T, I51F
VL: B1 VL with H91Q
notes: Fab
B28: Ab1 Fab variant L3 T138F (Fab, V domains shown)
VH: B1 VH with A30T, I51F
VL: B1 VL with T97F
notes: Fab
B29: Ab1 Fab variant L3 S135V (Fab, V domains shown)
VH: B1 VH with A30T, I51F
VL: B1 VL with S94V
notes: Fab
B30: Ab1 Fab variant L3 S135H (Fab, V domains shown)
VH: B1 VH with A30T, I51F
VL: B1 VL with S94H
notes: Fab
B31: Ab1 Fab variant L3 Q108L (Fab, V domains shown)
VH: B1 VH with A30T, I51F
VL: B1 VL with Q90L
notes: Fab
B32: Ab1 Fab variant L3 S135G (Fab, V domains shown)
VH: B1 VH with A30T, I51F
VL: B1 VL with S94G
notes: Fab

The first experiment deals with T1, recombinant human ROR1 extracellular domain (human, UniProt Q01973 30-406).
T1 construct: biotinylated for the filter lifts; also called huROR1-ECD; human ROR1-ECD
T1 sequence (Q01973 30-406 limits assumed): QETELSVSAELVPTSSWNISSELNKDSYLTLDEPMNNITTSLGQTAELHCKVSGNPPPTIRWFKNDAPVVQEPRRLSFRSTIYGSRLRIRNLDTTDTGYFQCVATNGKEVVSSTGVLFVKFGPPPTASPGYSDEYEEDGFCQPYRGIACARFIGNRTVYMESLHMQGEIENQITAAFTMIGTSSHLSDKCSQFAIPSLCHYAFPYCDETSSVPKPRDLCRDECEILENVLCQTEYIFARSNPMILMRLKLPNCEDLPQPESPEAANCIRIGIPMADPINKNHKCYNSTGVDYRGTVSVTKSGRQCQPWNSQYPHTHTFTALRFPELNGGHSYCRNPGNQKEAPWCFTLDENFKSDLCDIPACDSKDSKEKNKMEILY
Kind of experiment: ELISA with prolonged wash, soluble Fab on coated huROR1-ECD. How it is done:
The previously described filter lift assay provides a visual, qualitative assessment of antigen binding (Example 1). In order to assess the ROR1 binding activity of Ab1 Fab in a more quantitative fashion, an ELISA assay was developed. A 96-well Costar-3366 plate was coated with 50 μL/well of 1 μg/mL human ROR1-ECD (ACROBiosystems, cat. #RO1-H522y) in PBS overnight at 4° C. The plate was rinsed once with PBS-T and blocked with 100 μL/well of 5% M-P for 1 h at 25° C. Fab samples were serially diluted 3-fold using 5% M-P and 50 μL/well was incubated for 1 h at 25° C. The plate was washed three times with PBS-T and 50 μL/well anti-human kappa, and HRP conjugate (Southern Biotech, cat. #2060-05) diluted 10,000-fold in 5% M-P was added for 1 h at 25° C. In certain assays (extended wash format), the plate was placed in large volumes (up to 1 L) of PBS-T and incubated, with mixing, for 2-5 h prior to the addition of anti-human kappa, HRP conjugate. The plate was washed three times with PBS-T, and developed with 50 μL/well 1-Step Ultra TMB-ELISA (Thermo Scientific, cat. #34028). The reaction was terminated by the addition of 2 N H2504 and the A450 was determined using a Spectramax plate reader.
Subsequently, the libraries were screened by capture lift to identify the strongest binding variants. The identity of the variants was determined by DNA sequencing and the relative affinities were characterized using an ELISA (described in Example 2) modified to enable further discrimination between the highest affinity variants. Specifically, following the initial incubation with soluble Fab, the plates were washed for a prolonged time (>1 h) in large volumes of PBS-T. The plates were then developed as described in Example 2.
(In general: An ELISA detects its analyte on a solid surface through an enzyme-linked reagent.)
B1: the equilibrium dissociation constant (Kd) came out at 4.5 nM.
With B2, the Kd amounted to 3.4 nM.
Consider B3, for which the Kd came to 5 nM.
B4: the dissociation constant Kd was 3 nM.
The same measure, in the same setting: the figure for B5 is 8.5 nM; for B6 it is 8 nM; for B7 it is 3.2 nM.
Same read-out and setting: the result for B8 reads 2.2 nM.

The next experiment has as its target T1, recombinant human ROR1 extracellular …. Description: capture filter lift. How it is done:
Subsequently, the filter was applied to the agar plates as described above. For detection of antigen binding, the filter was rinsed briefly in PBS, and transferred to biotinylated huROR1-ECD (ACROBiosystems, cat. #RO1-H522y) in 5% M-P.
Filters were incubated with 2.3 nM biotinylated ROR1 diluted in 5% M-P for 2 h at 25° C. with constant agitation, and washed 5 times, 2 minutes each wash, with constant agitation in PBS-T. Alternatively, filters were washed more rapidly using a squirt bottle and sintered glass funnel for vacuum filtration. The filters were transferred to 10 mL of High Sensitivity Neutravidin, HRP conjugate (Thermo Scientific, cat. #31030) diluted 5000-fold in 1% BSA in PBS and incubated for 1 h at 25° C. The filters were then washed 5 times in PBS-T and were developed with 1-Step Ultra TMB-Blotting.
All libraries were initially screened by capture lift to identify variants with improved binding. The capture lift assay, described in Example 1, enables the filter lift assay to discern variants that bind antigen more strongly based on the staining intensity. In order to determine the optimal concentration of antigen to use for screening, biotinylated huROR1-ECD was titrated on a capture lift of Ab1 Fab. Binding to Ab1 was clearly visible at antigen concentrations ≥23 nM and the signal was diminished at lower huROR1 concentrations. […] In addition, for more stringent screening, filters were probed with lower concentrations of antigen and/or development of the filter was terminated earlier, before the Ab1 staining was visible. […] In this example, approximately 250 library variants were plated. Twelve variants clearly bound huROR1 (FIG. 4, numbered).
On to B9, for which the binding result is listed as “binds”.
As to B10, the binding result is listed as “binds”.
For the molecule B11, the binding result is “binds”.
Take B12: the binding result is listed as “binds”.
As for B13, the binding result is given as “binds”.
On to B14, for which the binding result is “binds”.
On the same count and under the same terms, the result for B15 reads “binds”; that for B16, “binds”.
Turning to B17, the binding result is listed as “binds”.
For the molecule B18, the binding result was “binds”.
Take B19: the binding result was “binds”.
B20: the binding result is listed as “binds”.
For B21, the binding result is recorded as “binds”.
Consider B22, for which the binding result is on record as “binds”.
With B23, the binding result is listed as “binds”.
As for B24, the binding result was “binds”.
Still for that read-out and setting: the entry for B25 is “binds”; for B26 it is “binds”.
Turning to B27, the binding result is given as “binds”.
As to B28, the binding result is recorded as “binds”.
B29: the binding result is reported as “binds”.
Take B30: the binding result is reported as “binds”.
Take B31: the binding result is listed as “binds”.
Turning to B32, the binding result was “binds”.
